# Substitutions are numbered along the chain they refer to.
# B1: AZD8895-450 (antibody, V domains shown)
# VH: QMQLVQSGPEVKKPGTSVKVSCKASGFTFMSSAVQWVRQARGQRLEWIGWIVIGSGNTNYAQKFQERVTITRDMSTSTAYMELSSLRSEDTAVYYCAANYCSSTICSDGMDIWGQGTMVTVSS
# VL: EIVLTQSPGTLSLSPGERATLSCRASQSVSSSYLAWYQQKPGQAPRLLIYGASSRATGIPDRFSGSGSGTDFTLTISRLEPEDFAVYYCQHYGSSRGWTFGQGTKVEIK
# B2: AZD8895-449 (antibody, V domains shown)
# VH: B1 VH with N99P, S103L, I105N, M110F
# VL: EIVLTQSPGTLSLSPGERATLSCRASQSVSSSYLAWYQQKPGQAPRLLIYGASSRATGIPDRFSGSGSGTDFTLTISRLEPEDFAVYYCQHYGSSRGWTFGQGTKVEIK
# B3: AZD8895 (antibody, V domains shown)
# VH: B1 VH with N99P, T104I, I105S, S107N, M110F
# VL: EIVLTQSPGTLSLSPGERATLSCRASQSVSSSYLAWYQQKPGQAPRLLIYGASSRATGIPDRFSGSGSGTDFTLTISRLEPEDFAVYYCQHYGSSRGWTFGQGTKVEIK
# notes: also called seed antibody AZD8895; seed mAb; source: HEK293, transient transfection, purified (HiTrap Protein A HP)
# B4: AZD8895-275 (antibody, V domains shown)
# VH: B1 VH with N99P, S103L, I105Y, M110F
# VL: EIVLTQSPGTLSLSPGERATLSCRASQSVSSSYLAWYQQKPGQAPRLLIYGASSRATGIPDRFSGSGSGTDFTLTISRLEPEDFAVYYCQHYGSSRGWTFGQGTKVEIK
# B5: AZD8895-25 (antibody, V domains shown)
# VH: B1 VH with N99P, S103L, I105C, M110F
# VL: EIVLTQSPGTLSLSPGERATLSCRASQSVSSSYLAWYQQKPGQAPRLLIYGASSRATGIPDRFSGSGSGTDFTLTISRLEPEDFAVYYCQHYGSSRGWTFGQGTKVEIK
# Target: recombinant Fc-fused SARS-CoV-2 RBD protein (Severe acute respiratory syndrome …, UniProt P0DTC2)
# Test: SPR
# Conditions: both partners purified
row,Binder,Kd [nM]
1,B1,16.5
2,B2,13.2
3,B3,12.6
4,B4,8.42
5,B5,4.79
